The text below walks through data of US20240092919A1.

This assay has as its target human GPC3 on cells (human) (UniProt P51654). Kind of assay: cell-based or functional assay.

B1: A022600103 (protein)
chain: DVQLVESGGGVVQPGGSLRLSCVASGYVHKINFYGWYRQAPGKEREKVAHISIGDQTDYADSAKGRFTISRDESKNTVYLQMNSLRPEDTALYYCRALSRIWPYDYWGQGTLVTVSSGGGGSEVQLVESGGGLVQPGGSLRLSCVASGFTFSSFAMTWVRRPPGKGLEWVATITNGGVTSYRDSVKGRFTISRDNAKNTLYLEMTSLNPEDTAVYICANARRTGPRAPTDIGSYRGQGTLVTVSSGGGGSGGGGSGGGGSGGGGSGGGGSGGGGSGGGGSEVQLVESGGGVVQPGGSLRLSCAASGFTFRSFGMSWVRQAPGKGPEWVSSISGSGSDTLYADSVKGRFTISRDNSKNTLYLQMNSLRPEDTALYYCTIGGSLSRSSQGTLVTVSSA
In turn, B1 came in with a HepG2 on Incucyte IC50 (M), human TDC, E:T 15:1, 60 h of 1.23e-09 M; a HepG2 on Incucyte Max % killing, 60 h of 96%; a Huh7 on xCELLigence IC50 (M), human TDC, E:T 15:1, 60 h of 7.11e-09 M; a Huh7 on xCELLigence Max % killing, 60 h of 71%. This molecule also returned an IC50 (M), Incucyte human TDC HepG2-Nuclight green assay, E:T 15:1 (Step 2) of 5.43e-10 M; an IC50 (M), Incucyte human TDC HepG2-Nuclight green assay, E:T 15:1, 72 h of 2.04e-09 M; a Max % Killing, Incucyte human TDC HepG2-Nuclight green assay (Step 2) of 90%; a Max % Killing, Incucyte human TDC HepG2-Nuclight green assay, 72 h of 92%.

B2: A022600104 (protein)
chain: DVQLVESGGGVVQPGGSLRLSCVASGYVHKINFYGWYRQAPGKEREKVAHISIGDQTDYADSAKGRFTISRDESKNTVYLQMNSLRPEDTALYYCRALSRIWPYDYWGQGTLVTVSSGGGGSGGGSEVQLVESGGGLVQPGGSLRLSCVASGFTFSSFAMTWVRRPPGKGLEWVATITNGGVTSYRDSVKGRFTISRDNAKNTLYLEMTSLNPEDTAVYICANARRTGPRAPTDIGSYRGQGTLVTVSSGGGGSGGGGSGGGGSGGGGSGGGGSGGGGSGGGGSEVQLVESGGGVVQPGGSLRLSCAASGFTFRSFGMSWVRQAPGKGPEWVSSISGSGSDTLYADSVKGRFTISRDNSKNTLYLQMNSLRPEDTALYYCTIGGSLSRSSQGTLVTVSSA
Molecule B2 gave an IC50 (M), Incucyte human TDC HepG2-Nuclight green assay, E:T 15:1, 72 h of 2.13e-09 M and a Max % Killing, Incucyte human TDC HepG2-Nuclight green assay, 72 h of 90%.

B3: A022600132 (protein)
chain: DVQLVESGGGVVQPGGSLRLSCVASGYVHKINFYGWYRQAPGKEREKVAHISIGDQTDYADSAKGRFTISRDESKNTVYLQMNSLRPEDTALYYCRALSRIWPYDYWGQGTLVTVSSGGGGSEVQLVESGGGLVQPGGSLRLSCVASGFTFSSFAMTWVRRPPGKGLEWVATITNGGVTSYRDSVKGRFTISRDNAKNTLYLEMTSLNPEDTAVYICANARRTGPRAPTDIGSYRGQGTLVTVSSGGGGSGGGSEVQLVESGGGLVQPGGSLRLSCVASGSIFRSVFSSSTMEWYRQPPGKKRELVARIAPGDGTNYGALYADSVKGRFTISRDDAKKTVDLQMNSLKPEDTGVYFCASGVAWGQGTLVTVSSGGGGSGGGGSGGGGSGGGGSGGGGSGGGGSGGGGSEVQLVESGGGVVQPGGSLRLSCAASGFTFRSFGMSWVRQAPGKGPEWVSSISGSGSDTLYADSVKGRFTISRDNSKNTLYLQMNSLRPEDTALYYCTIGGSLSRSSQGTLVTVSSA
As to B3, the HepG2 on Incucyte IC50 (M), human TDC, E:T 15:1, 60 h was determined as 6.83e-10 M; the HepG2 on Incucyte Max % killing, 60 h was 83%; the Huh7 on xCELLigence IC50 (M), human TDC, E:T 15:1, 60 h is 2.9e-10 M; the Huh7 on xCELLigence Max % killing, 60 h is 95%. The molecule further displayed an IC50 (M), Incucyte human TDC HepG2-Nuclight green assay, E:T 15:1 (Step 2) of 7.02e-10 M and a Max % Killing, Incucyte human TDC HepG2-Nuclight green assay (Step 2) of 91%.

B4: A022600102 (protein)
chain: DVQLVESGGGVVQPGGSLRLSCVASGYVHKINFYGWYRQAPGKEREKVAHISIGDQTDYADSAKGRFTISRDESKNTVYLQMNSLRPEDTALYYCRALSRIWPYDYWGQGTLVTVSSAAAEVQLVESGGGLVQPGGSLRLSCVASGFTFSSFAMTWVRRPPGKGLEWVATITNGGVTSYRDSVKGRFTISRDNAKNTLYLEMTSLNPEDTAVYICANARRTGPRAPTDIGSYRGQGTLVTVSSGGGGSGGGGSGGGGSGGGGSGGGGSGGGGSGGGGSEVQLVESGGGVVQPGGSLRLSCAASGFTFRSFGMSWVRQAPGKGPEWVSSISGSGSDTLYADSVKGRFTISRDNSKNTLYLQMNSLRPEDTALYYCTIGGSLSRSSQGTLVTVSSA
For B4, the IC50 (M), Incucyte human TDC HepG2-Nuclight green assay, E:T 15:1, 72 h came out at 1.72e-09 M and the Max % Killing, Incucyte human TDC HepG2-Nuclight green assay, 72 h worked out at 94%.

B5: A022600131 (protein)
chain: DVQLVESGGGVVQPGGSLRLSCVASGYVHKINFYGWYRQAPGKEREKVAHISIGDQTDYADSAKGRFTISRDESKNTVYLQMNSLRPEDTALYYCRALSRIWPYDYWGQGTLVTVSSGGGGSEVQLVESGGGLVQPGGSLRLSCVASGFTFSSFAMTWVRRPPGKGLEWVATITNGGVTSYRDSVKGRFTISRDNAKNTLYLEMTSLNPEDTAVYICANARRTGPRAPTDIGSYRGQGTLVTVSSGGGGSGGGGSGGGGSGGGGSEVQLVESGGGLVQPGGSLRLSCVASGSIFRSVFSSSTMEWYRQPPGKKRELVARIAPGDGTNYGALYADSVKGRFTISRDDAKKTVDLQMNSLKPEDTGVYFCASGVAWGQGTLVTVSSGGGGSGGGGSGGGGSGGGGSGGGGSGGGGSGGGGSEVQLVESGGGVVQPGGSLRLSCAASGFTFRSFGMSWVRQAPGKGPEWVSSISGSGSDTLYADSVKGRFTISRDNSKNTLYLQMNSLRPEDTALYYCTIGGSLSRSSQGTLVTVSSA
As for B5, the IC50 (M), Incucyte human TDC HepG2-Nuclight green assay, E:T 15:1 (Step 2) was 4.44e-10 M and the Max % Killing, Incucyte human TDC HepG2-Nuclight green assay (Step 2) came to 94%.

B6: A022600096 (protein)
chain: DVQLVESGGGLVQPGGSLRLSCVASGYVHKINFYGWYRQAPGKEREKVAHISIGDQTDYADSAKGRFTISRDESKNTVYLQMNSLRPEDTALYYCRALSRIWPYDYWGQGTLVTVSSGGGGSGGGGSGGGGSGGGGSGGGGSGGGGSGGGGSEVQLVESGGGLVQPGGSLRLSCVASGFTFSSFAMTWVRRPPGKGLEWVATITNGGVTSYRDSVKGRFTISRDNAKNTLYLEMTSLNPEDTAVYICANARRTGPRAPTDIGSYRGQGTLVTVSSGGGGSGGGGSGGGGSGGGGSGGGGSGGGGSGGGGSEVQLVESGGGVVQPGGSLRLSCAASGFTFRSFGMSWVRQAPGKGPEWVSSISGSGSDTLYADSVKGRFTISRDNSKNTLYLQMNSLRPEDTALYYCTIGGSLSRSSQGTLVTVSSA
B6 had an IC50 (M), Incucyte human TDC HepG2-Nuclight green assay, E:T 15:1, 72 h of 1.4e-09 M and a Max % Killing, Incucyte human TDC HepG2-Nuclight green assay, 72 h of 72%.

B7: A022600105 (protein)
chain: DVQLVESGGGVVQPGGSLRLSCVASGYVHKINFYGWYRQAPGKEREKVAHISIGDQTDYADSAKGRFTISRDESKNTVYLQMNSLRPEDTALYYCRALSRIWPYDYWGQGTLVTVSSGGGGSGGGGSGGGGSGGGGSEVQLVESGGGLVQPGGSLRLSCVASGFTFSSFAMTWVRRPPGKGLEWVATITNGGVTSYRDSVKGRFTISRDNAKNTLYLEMTSLNPEDTAVYICANARRTGPRAPTDIGSYRGQGTLVTVSSGGGGSGGGGSGGGGSGGGGSGGGGSGGGGSGGGGSEVQLVESGGGVVQPGGSLRLSCAASGFTFRSFGMSWVRQAPGKGPEWVSSISGSGSDTLYADSVKGRFTISRDNSKNTLYLQMNSLRPEDTALYYCTIGGSLSRSSQGTLVTVSSA
B7 displayed an IC50 (M), Incucyte human TDC HepG2-Nuclight green assay, E:T 15:1, 72 h of 2.14e-09 M and a Max % Killing, Incucyte human TDC HepG2-Nuclight green assay, 72 h of 85%.

B8: A022600122 (protein)
chain: DVQLVESGGGVVQPGGSLRLSCVASGYVHKINFYGWYRQAPGKEREKVAHISIGDQTDYADSAKGRFTISRDESKNTVYLQMNSLRPEDTALYYCRALSRIWPYDYWGQGTLVTVSSGGGGSEVQLVESGGGLVQPGGSLRLSCVASGFTFSSFAMTWVRRPPGKGLEWVATITNGGVTSYRDSVKGRFTISRDNAKNTLYLEMTSLNPEDTAVYICANARRTGPRAPTDIGSYRGQGTLVTVSSGGGGSGGGGSGGGGSGGGGSGGGGSGGGGSGGGGSEVQLVESGGGLVQPGGSLRLSCVASGSIFRSVFSSSTMEWYRQPPGKKRELVARIAPGDGTNYGALYADSVKGRFTISRDDAKKTVDLQMNSLKPEDTGVYFCASGVAWGQGTLVTVSSGGGGSGGGGSGGGGSGGGGSGGGGSGGGGSGGGGSEVQLVESGGGVVQPGGSLRLSCAASGFTFRSFGMSWVRQAPGKGPEWVSSISGSGSDTLYADSVKGRFTISRDNSKNTLYLQMNSLRPEDTALYYCTIGGSLSRSSQGTLVTVSSA
For B8, the HepG2 on Incucyte IC50 (M), human TDC, E:T 15:1, 60 h was 5.3e-10 M; the HepG2 on Incucyte Max % killing, 60 h worked out at 93%; the Huh7 on xCELLigence IC50 (M), human TDC, E:T 15:1, 60 h is 2.61e-10 M; the Huh7 on xCELLigence Max % killing, 60 h was 101%. Moreover, the IC50 (M), Incucyte human TDC HepG2-Nuclight green assay, E:T 15:1 (Step 2) worked out at 4.45e-10 M and the Max % Killing, Incucyte human TDC HepG2-Nuclight green assay (Step 2) came out at 92%.

B9: A022600134 (protein)
chain: DVQLVESGGGVVQPGGSLRLSCVASGYVHKINFYGWYRQAPGKEREKVAHISIGDQTDYADSAKGRFTISRDESKNTVYLQMNSLRPEDTALYYCRALSRIWPYDYWGQGTLVTVSSGGGGSEVQLVESGGGLVQPGGSLRLSCVASGSIFRSVFSSSTMEWYRQPPGKKRELVARIAPGDGTNYGALYADSVKGRFTISRDDAKKTVDLQMNSLKPEDTGVYFCASGVAWGQGTLVTVSSGGGGSGGGGSGGGGSGGGGSEVQLVESGGGLVQPGGSLRLSCVASGFTFSSFAMTWVRRPPGKGLEWVATITNGGVTSYRDSVKGRFTISRDNAKNTLYLEMTSLNPEDTAVYICANARRTGPRAPTDIGSYRGQGTLVTVSSGGGGSGGGGSGGGGSGGGGSGGGGSGGGGSGGGGSEVQLVESGGGVVQPGGSLRLSCAASGFTFRSFGMSWVRQAPGKGPEWVSSISGSGSDTLYADSVKGRFTISRDNSKNTLYLQMNSLRPEDTALYYCTIGGSLSRSSQGTLVTVSSA
Regarding B9, the IC50 (M), Incucyte human TDC HepG2-Nuclight green assay, E:T 15:1 (Step 2) is 5.28e-10 M and the Max % Killing, Incucyte human TDC HepG2-Nuclight green assay (Step 2) is 92%.

B10: A022600133 (protein)
chain: DVQLVESGGGVVQPGGSLRLSCVASGYVHKINFYGWYRQAPGKEREKVAHISIGDQTDYADSAKGRFTISRDESKNTVYLQMNSLRPEDTALYYCRALSRIWPYDYWGQGTLVTVSSGGGGSEVQLVESGGGLVQPGGSLRLSCVASGSIFRSVFSSSTMEWYRQPPGKKRELVARIAPGDGTNYGALYADSVKGRFTISRDDAKKTVDLQMNSLKPEDTGVYFCASGVAWGQGTLVTVSSGGGGSGGGGSGGGGSGGGGSGGGGSGGGGSGGGGSEVQLVESGGGLVQPGGSLRLSCVASGFTFSSFAMTWVRRPPGKGLEWVATITNGGVTSYRDSVKGRFTISRDNAKNTLYLEMTSLNPEDTAVYICANARRTGPRAPTDIGSYRGQGTLVTVSSGGGGSGGGGSGGGGSGGGGSGGGGSGGGGSGGGGSEVQLVESGGGVVQPGGSLRLSCAASGFTFRSFGMSWVRQAPGKGPEWVSSISGSGSDTLYADSVKGRFTISRDNSKNTLYLQMNSLRPEDTALYYCTIGGSLSRSSQGTLVTVSSA
B10 had an IC50 (M), Incucyte human TDC HepG2-Nuclight green assay, E:T 15:1 (Step 2) of 4.08e-10 M and a Max % Killing, Incucyte human TDC HepG2-Nuclight green assay (Step 2) of 92%.
